Patent US5622828

How the values were obtained:
Assay in all cases: filter
[1] = test system: immunoglobulin G (IgG) (Homo sapiens); settings: 2'-NH2 all C and U, TBSC
[2] = biological target: T1, secretory phospholipase A2 (sPLA2) (Homo sapiens) (UniProt P14555); settings: TBSC, 37 C
T1 sequence: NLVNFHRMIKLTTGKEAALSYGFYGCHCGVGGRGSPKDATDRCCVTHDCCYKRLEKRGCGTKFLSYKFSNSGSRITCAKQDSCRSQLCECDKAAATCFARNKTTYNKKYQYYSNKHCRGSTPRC

[3] = biological target: basic fibroblast growth factor (bFGF) (Homo sapiens) (UniProt P09038); settings: random pool, TBSC
[4] = biological target: C1q (printed Clq) (Homo sapiens) (UniProt P02745+P02746+P02747); settings: 2'-NH2 all C and U; random pool; TBSC
[5] = biological target: T2, neutrophil elastase (Homo sapiens) (UniProt P08246); settings: 2'-NH2 all C and U; random pool; TBSC
T2 sequence: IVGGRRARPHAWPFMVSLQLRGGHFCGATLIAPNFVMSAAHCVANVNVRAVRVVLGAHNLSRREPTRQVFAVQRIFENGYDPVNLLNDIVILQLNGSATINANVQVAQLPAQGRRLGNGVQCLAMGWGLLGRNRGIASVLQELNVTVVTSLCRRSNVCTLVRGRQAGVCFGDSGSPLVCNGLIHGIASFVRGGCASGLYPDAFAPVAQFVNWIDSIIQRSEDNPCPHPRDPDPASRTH

[6] = biological target: pancreatic phospholipase A2 (bpPLA2) (Bos taurus) (UniProt P00593); settings: random pool; TBSC
[7] = biological target: lysozyme (egg white) (Gallus gallus) (UniProt P00698); settings: random pool; TBSC
[8] = 2'-NH2 all C and U, random starting pool

Chain of basic fibroblast growth factor (bFGF) (Homo sapiens) (P09038 143-288): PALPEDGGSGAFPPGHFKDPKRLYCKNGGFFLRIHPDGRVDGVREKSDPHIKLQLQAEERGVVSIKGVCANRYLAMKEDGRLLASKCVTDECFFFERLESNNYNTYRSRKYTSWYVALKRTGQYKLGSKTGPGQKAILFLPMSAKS
Chain of lysozyme (egg white) (Gallus gallus) (P00698 19-147): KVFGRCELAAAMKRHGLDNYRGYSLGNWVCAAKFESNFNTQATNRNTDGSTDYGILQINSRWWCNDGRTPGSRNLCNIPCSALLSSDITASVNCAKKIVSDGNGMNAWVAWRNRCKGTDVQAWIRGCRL
Chain of pancreatic phospholipase A2 (bpPLA2) (Bos taurus) (P00593 23-145): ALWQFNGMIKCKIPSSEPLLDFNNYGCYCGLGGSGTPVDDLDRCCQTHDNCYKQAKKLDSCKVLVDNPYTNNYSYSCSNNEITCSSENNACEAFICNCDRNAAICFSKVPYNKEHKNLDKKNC
Chain of C1q (printed Clq) (Homo sapiens) (P02745 23-245, chain 1 of 3): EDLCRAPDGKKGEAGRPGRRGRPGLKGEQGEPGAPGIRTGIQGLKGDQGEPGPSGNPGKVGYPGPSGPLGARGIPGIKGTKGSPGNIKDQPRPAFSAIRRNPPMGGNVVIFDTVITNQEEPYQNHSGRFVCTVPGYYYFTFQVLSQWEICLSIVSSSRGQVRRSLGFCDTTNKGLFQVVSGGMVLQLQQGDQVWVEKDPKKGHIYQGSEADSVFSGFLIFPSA
Chain of C1q (printed Clq) (Homo sapiens) (P02746 28-253, chain 2 of 3): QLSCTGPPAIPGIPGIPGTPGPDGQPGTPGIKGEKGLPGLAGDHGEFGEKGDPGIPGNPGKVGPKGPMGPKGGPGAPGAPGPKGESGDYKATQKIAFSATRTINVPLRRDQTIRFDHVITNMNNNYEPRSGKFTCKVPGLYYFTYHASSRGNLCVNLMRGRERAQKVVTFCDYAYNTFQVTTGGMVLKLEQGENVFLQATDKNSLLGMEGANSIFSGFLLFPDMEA
Chain of C1q (printed Clq) (Homo sapiens) (P02747 29-245, chain 3 of 3): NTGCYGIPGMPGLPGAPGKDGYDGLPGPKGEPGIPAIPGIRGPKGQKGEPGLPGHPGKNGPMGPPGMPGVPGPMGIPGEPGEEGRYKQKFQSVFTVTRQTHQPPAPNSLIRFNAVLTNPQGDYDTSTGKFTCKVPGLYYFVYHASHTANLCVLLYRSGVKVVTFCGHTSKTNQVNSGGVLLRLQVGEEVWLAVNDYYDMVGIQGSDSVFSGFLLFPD

## GGGAAAAGCGAAUCAUACACAAGACCGGCCGGCGCCAUAGCCGAGAUCCGAGGUGUUGAACGAUAACUCGGUGCUCCGCCAGAGACCAACCGAGAA [NN19]
[1]; specificity control
  Kd: > 5000 nM

## GGGAGCUCAGAAUAAACGCUCAANNNNNNNNNNNNNNNNNNNNNNNNNNNNNNUUCGACAUGAGGCCCGGAUCCGGC [30N1F random RNA]
[2]; 2'-F all C and U, random 2'-F pool
  Kd: 35 nM

## GGGAAAAGAAGACCGGCCGGCGCCAUAGCCGAGAUCCGAGGUGUUGCCGAGAA [NN19.15]
[1]; specificity control, like random RNA
  Kd: 4300 nM

## GGGAAAAGCGAAUCAUACACAAGANNNNNNNNNNNNNNNNNNNNNNNNNNNNNNNNNNNNNNNNNNNNNNNNNNGCUCCGCCAGAGACCAACCGAGAA [50N9 random RNA]
[3]; 2'-NH2 all C and U
  Kd: 170 nM
[4]
  Kd: 1000 nM
[2]; [8]
  Kd: 48 nM
[5]
  Kd: 70 nM
[1]; random pool
  Kd: > 5000 nM

## GGGAGGACGAUGCGGNNNNNNNNNNNNNNNNNNNNNNNNNNNNNNNNNNNNNNNNNNNNNNNNNNCAGACGACUCGCCCGA [50N7 random RNA]
[2]; [8]
  Kd: 71 nM

## GGGAGCUCAGAAUAAACGCUCAAGANCUCUGCUUACAGCCCGGCUGGGACACUUCGACAUGAGGCCCGGAUCCGGC [75t (75)]
[2]; biphasic, Kd2 420 nM, mole fraction 0.40
  Kd: 0.9 nM

## GGGAGCUCAGAAUAAACGCUCAANNNNNNNNNNNNNNNNNNNNNNNNNNNNNNUUCGACAUGAGGCCCGGAUCCGGC [30N1 random RNA]
[6]
  Kd: 22500 nM
[3]
  Kd: 270 nM
[2]; random pool, text of Example 2 gives 240 nM
  Kd: 360 nM
[7]
  Kd: 1650 nM
